In paper PMC4209899:

System: Ifit1
Assay: filter binding
Conditions: 5' cap 0 (N-7 methylguanosine)

## G3 VEEV TRD 5'-UTR RNA, cap 0
  Kd: 91 nM
